The results in this text go back to patent US20090176205, “Mutant proteins in the dna-binding domain of a telomeric protein, trf2, and telomeric dna mutants, and use of the complex structure of the trf2 dna-binding domain and telomeric dna” (published 2009).

Data set [1] addresses T1, hTRF2-DBD wild type (Homo sapiens, UniProt Q15554 SEQ:1-63). The data set can be described thus: SPR; pH 6.8, 180 mM KCl, 293 K. The following applies: tags: N-terminal Met added; untagged, E. coli BL21(DE3) pET23b; label: biotin (13mer on SA chip). As for the experimental part:
(§1) The same experiments were performed on the six mutants of hTRF2 under the same conditions. […] Further, the six mutants were analyzed by SPR for the three DNAs T3G, G7C and T9G, as well as tr13. As a result, Kd values for T3G are about 7 times higher than those values for tr13; and Kd values for T9G are about 100 times higher than those values for tr13. […] Since C7′ is changed to G7′ in G7C, Asp489 which recognizes C7′ has become incapable of recognizing DNA. Thus, interaction with DNA is assumed to be non-specific. Although the affinity to T9G is about 10 times lower than the affinity to G7C, differences in Kd values of individual mutants for DNA show relatively similar tendencies to those observed in tr13 and T3G. It is believed that the binding mode between the major groove and recognition helix is not changed and that only the affinity to T9G is merely very low.
(§2) Affinity analysis was performed using a Biacore 3000 instrument. All experiments were performed at 293 K using a buffer containing 10 mM HEPES-KOH, 3 mM EDTA, 180 mM KCl and 0.003% Triton X-100 (v/v) (pH 6.8). Flow cells of an SA streptavidin sensor chip were coated with the 13mer oligonucleotide biotinylated. The proteins were injected into flow cells over 3-5 min at a flow rate of 10 μL/min until the reaction of protein with DNA had been equilibrated. Bound proteins were removed by a 30-sec wash with 2M KCl.
For orientation: In SPR one partner is held on a chip, and binding of the other changes the refractive index at the surface.

The next data set has as its target T2, hTRF2-DBD A484S (Homo sapiens, UniProt Q15554 SEQ:1-63).
T2 chain: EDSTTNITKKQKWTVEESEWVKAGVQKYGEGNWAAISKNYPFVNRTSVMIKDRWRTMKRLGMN
The data set can be described thus: SPR; pH 6.8, 180 mM KCl, 293 K. The following applies: tags: N-terminal Met added; untagged, E. coli BL21(DE3) pET23b; label: biotin (13mer on SA chip). As for the experimental part: as §1, §2

The target in another data set is T3, hTRF2-DBD R496K (Homo sapiens, UniProt Q15554 SEQ:1-63).
T3 chain: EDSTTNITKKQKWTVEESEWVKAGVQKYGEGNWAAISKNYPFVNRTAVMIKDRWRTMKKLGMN
The data set can be described thus: SPR; pH 6.8, 180 mM KCl, 293 K. The following applies: tags: N-terminal Met added; untagged, E. coli BL21(DE3) pET23b; label: biotin (13mer on SA chip). As for the experimental part:
as §1, §2

The target in data set [2] is T4, hTRF1 (DNA-binding domain) (Homo sapiens, UniProt P54274 P54274:371-439). Nature of the data set: SPR; pH 6.8, 180 mM KCl, 293 K. The conditions noted are these: label: biotin (13mer on SA chip). As for the experimental part: as §1, §2
T4 sequence (P54274 371-439, one chain of several): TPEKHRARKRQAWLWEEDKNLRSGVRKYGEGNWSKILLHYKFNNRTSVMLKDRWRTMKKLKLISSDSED
For data set [3], the target named is T5, hTRF2-DBD dm (A471S/A484S) (Homo sapiens, UniProt Q15554 SEQ:1-63).
T5 chain: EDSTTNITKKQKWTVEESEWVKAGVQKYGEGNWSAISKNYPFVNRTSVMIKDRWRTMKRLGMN
The data set can be described thus: SPR; pH 6.8, 180 mM KCl, 293 K. The conditions noted are these: tags: N-terminal Met added; untagged, E. coli BL21(DE3) pET23b; label: biotin (13mer on SA chip). As for the experimental part:
as §1, §2

The target in another data set is T6, hTRF2-DBD A471S (Homo sapiens, UniProt Q15554 SEQ:1-63).
T6 chain: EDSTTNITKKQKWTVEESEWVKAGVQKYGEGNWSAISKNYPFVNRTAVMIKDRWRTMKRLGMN
The data set can be described thus: SPR; pH 6.8, 180 mM KCl, 293 K. The conditions noted are these: tags: N-terminal Met added; untagged, E. coli BL21(DE3) pET23b; label: biotin (13mer on SA chip). The protocol:
as §1, §2

For another data set, the target named is T7, hTRF2-DBD K447R (Homo sapiens, UniProt Q15554 SEQ:1-63).
T7 chain: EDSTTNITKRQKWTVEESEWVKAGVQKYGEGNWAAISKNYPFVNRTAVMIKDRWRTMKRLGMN
The data set can be described thus: SPR; pH 6.8, 180 mM KCl, 293 K. The conditions noted are these: tags: N-terminal Met added; untagged, E. coli BL21(DE3) pET23b; label: biotin (13mer on SA chip). The protocol:
as §1, §2

Data set [4] has as its target T8, hTRF2-DBD qm (K447R/A471S/A484S/R496K) (Homo sapiens, UniProt Q15554 SEQ:1-63).
T8 chain: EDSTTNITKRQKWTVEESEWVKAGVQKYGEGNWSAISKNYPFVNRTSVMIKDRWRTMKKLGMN
The data set can be described thus: SPR; pH 6.8, 180 mM KCl, 293 K. The following applies: tags: N-terminal Met added; untagged, E. coli BL21(DE3) pET23b; label: biotin (13mer on SA chip). The protocol:
as §1, §2

Data set [5] deals with T4, hTRF1 (DNA-binding domain). The data set can be described thus: SPR; 10 mM HEPES-KOH pH 6.8, 3 mM EDTA, 180 mM KCl, 0.003% Triton X-100, 293 K. The following applies: label: biotin (13mer on SA chip). As for the experimental part:
The same experiments were performed on hTRF1 under the same conditions.
as §2, with “KCl. An equilibrium dissociate constant (Kd) was calculated from a Scatchard analysis of the RU values in the equilibrium region of the sensorgram at each analyte concentration. The affinity data were analyzed using BIAevaluation ver. 3.2 software.” for “KCl.”

Data set [6] addresses T1, hTRF2-DBD wild type. The data set can be described thus: SPR; pH 6.8, 180 mM KCl, 293 K; 1:1 complex also shown by NMR titration and structure. The conditions noted are these: tags: N-terminal Met added; untagged, E. coli BL21(DE3) pET23b; label: biotin (13mer on SA chip). The protocol: as §1, §2

B1: T3G (dsDNA)
DNA 1: GTGAGGGTTAGGG
DNA 2: CCCTAACCCTCAC
For B1, the Kd (in general, the concentration at which binding is half-saturated) in the data set with hTRF2-DBD wild type [1] was found to be 5.94 µM; with hTRF2-DBD A484S, 4.03 µM; with hTRF2-DBD R496K it was 4.92 µM; in data set [2] it was 0.795 µM; in [3], 2.58 µM; in the data set with hTRF2-DBD A471S, 3.07 µM. This molecule also had a Kd in the data set with hTRF2-DBD K447R of 2.19 µM.

B2: T9G (dsDNA)
DNA 1: GTTAGGGTGAGGG
DNA 2: CCCTCACCCTAAC
As to B2, the Kd with hTRF2-DBD wild type [1] amounted to 110 µM; with hTRF2-DBD A484S, 69.1 µM; with hTRF2-DBD R496K, 114 µM; in [2] it was 3.14 µM; in data set [3], 47.9 µM; in [4], 26.5 µM. The Kd with hTRF2-DBD A471S came to 44.2 µM; in the data set with hTRF2-DBD K447R it was 37 µM.

B3: tr13 (dsDNA)
DNA 1: GTTAGGGTTAGGG
DNA 2: CCCTAACCCTAAC
For the molecule B3, the Kd in [5] is 0.186 µM; with hTRF2-DBD wild type [6], 0.748 µM; with hTRF2-DBD A484S, 0.55 µM; with hTRF2-DBD R496K, 0.764 µM; in [3], 0.385 µM; in [4] it was 0.196 µM. The Kd is 0.482 µM in the data set with hTRF2-DBD A471S and 0.297 µM with hTRF2-DBD K447R.

B4: G7C (dsDNA)
DNA 1: GTTAGGCTTAGGG
DNA 2: CCCTAAGCCTAAC
With B4, the Kd with hTRF2-DBD A484S worked out at 50.7 µM; with hTRF2-DBD R496K, 87 µM; in data set [2], 12.2 µM; in data set [3], 33.8 µM; in the data set with hTRF2-DBD A471S it was 32.3 µM; with hTRF2-DBD K447R, 24.5 µM.
